According to the nanobody polyreactivity screen of Harvey et al. (2022):

Assay: yeast display, Sf9 membrane polyspecificity reagent, FACS + sequencing; frameworks hold sequencing errors
How it was run: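 A synthetic nanobody library was expressed on Saccharomyces cerevisiae BJ5465 by galactose induction for 36–48 hours. The library was stained for 1 hour at 4 °C with 10% biotinylated, detergent-solubilized Sf9 membrane reagent and enriched with streptavidin microbeads before FACS. Low and high (top ~1%) gates were set on anti-HA fluorescence for expression and streptavidin fluorescence for reagent binding, and each polyreactivity label reflects the gate of origin.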

Sequence	polyreactivity (PSR sort gate)
QVQLVESGGGLDQAGGSLRLSCAASGRNYGLYAMGWYIQAPWKERELVAAITRTASTNYADSVNGRFTISRDNAKNTVYLQMNSLKPEDTAVYYCAAESWYPSDLWYTYEYWGQGTQVTVSS	low polyreactivity
QVQLVESGGGLDQAGGSLRLSCAASGRTFDFYAMGWYRQAPGKEMELVAAITFSTGSTTYADSVKGRFTISRDNAKNTVYLQMNSLKPEDTAVYYCAADGDGWWWSYVDRYDYWGQGTQVTVSS	low polyreactivity
QVQLVESGGGLDQAGGSLRLSCAASGRTFGYYARGWYRQAPGKERELVAAISYSGGTTYYADSVKGRYTISRDNAKNTVYLQMNSLKPEDTAVYYCATGGYSTRQSTFDYWGQGTQVTVSS	low polyreactivity
QVQLVESGGGLDQAGGSLRLSCAASGRTFIYNAMGWYRQAPGKEREFVAAITWSGATTRYADSVKGRFTISRDNAKNTVYLQMNSLKPEDTAVYYCAKGGFYYYGWRSSMDYWGQGTQVTVSS	high polyreactivity
QVQLVESGGGLDQAGGSLRLSCAASGRTFWNYAMGWYRQAPGKERELVAVIRFSDGSTYYADSVKGRFTISRDNAKNTVYLQMNSLKPEDTAVYYCAAKGPRRWASGFDYWGQGTQVTVSS	low polyreactivity
QVQLVESGGGLDQAGGSLRLSCAASGRTFYANPMGWYRQAPGKQRELVAAIRRSGGRTYYADSVKGRFTISRDNAKNTVYLQMNSLKPEDTAVYYCATARYRAEMGYWGQGTQVTVSS	high polyreactivity
QVQLVESGGGLDQAGGSLRLSCAASGRTIRYYTMGWYRQAPGTERELVATIRRGGTTYYADSVKGRFTISRDNAKNTVYLQMNSLKPEDTAVYYCAKESLYQYDYWGQGTQVTVSS	low polyreactivity
QVQLVESGGGLDQAGGSLRLSCAASGRTYYRYAMGWYRQAPGKESELVAAITWSGGSSYYADSVKGRFTTSRDNAKNTVYLQRNTLKPEDTAVYYCARRLYPYRPTAYDSWGQGTQVTVAS	low polyreactivity
QVQLVESGGGLDQAGGSLRLSCAASGSIFFYNVLGWYRQAPGKERELVASISWRGASTYYADSVKGRFTISRDNAKNTVYLQMNSLKPEDTAVYYCAARFRSATRYQTGYYWGQGTQVTVSS	high polyreactivity
QVQLVESGGGLDQAGGSLRLSCAASGSIFHWNVMGWYRQAPGKERKLVAVISSSDGSTNYADSVKGRFTISRDNAKNTVYLQMNCLKPEDTAVYYCAARGYAINYLWPFNYWGQGTQVTVSS	low polyreactivity
QVQLVESGGGLDQAGGSLRLSCAASGSIFKYYVIGCYRQAPAKERELLAAISSGGSTYYADSVKGRFTISRDNAKNTVSLQLNSLKPEDTAVYFCAAKKAKSYYVSRYPRYYYWGQGTQVTVSS	low polyreactivity
QVQLVESGGGLDQAGGSLRLSCAASGSIFPINAMGWYRQAPGKEREFDAAISSRGGSTYYADSVKGRFTISRDNAKNTVYFQMNSLKPEDTAVYYCAKYASVGYGRYPYDYWGQGTQVTVSS	high polyreactivity
QVQLVESGGGLDQAGGSLRLSCAASGSIFQYYAMGWYRQAPGKEREFVAAITSDGSSTYYADSVKGRFTISRDNAKNTVYLQMNSLKPEDTAVYYCAAGWVGYRLPSMYYWGQGTQVTVSS	high polyreactivity
QVQLVESGGGLDQAGGSLRLSCAASGSIFTGNAMGLYRQAPGKERELVAAISSSGGSTYYADSVKGRFTISRDNAKNTVYLQMNSLKPEDTAVYYCAAYKYFLQYDYWGQGTQVTVSS	low polyreactivity
QVQLVESGGGLDQAGGSLRLSCAASGSIFYHNAMGWYRQAPGKERELVAAITGSGGSTYYADSVKWRFTISRDNAKNTFYLQMNSLKPEDTAVYYCAADYDYQYRYYYWGQGTQVTVSS	low polyreactivity
QVQLVESGGGLDQAGGSLRLSCAASGSIIWYYAMGWYRQAPGKESELVASISRRGGSTYYADSVKGRFTISRDNAKYTVYLQMNSLKPEDTAVYYCAAYSRTTGSTVQGTYDYWGQGTQVSVSS	low polyreactivity

Sequence	polyreactivity (PSR sort gate)
QVQLVESGGGLDQAGGSLRLSCAASGSISVWYVMGWYRQAPGKERELVAAITRSGGSTFYADSLKGRFTISRDNAKNTVYLQMNSLKPEDTAVYYCASDGGVAWGYGDWGQGTQVTVSS	low polyreactivity
QVQLVESGGGLDQAGGSLRLSCAASGSTFDVYAMGRYRQAPGKVRELVAAISRSGGSTYYADSVKGRFTISRDYAKNNVYLQMYSLKPEDTAVYYCNARLARWGSYEYNYWGQGTQVTVSS	low polyreactivity
QVQLVESGGGLDQAGGSLRLSCAASGSTFLYYAMGWYRQAPGKEREFVARITTRVGRTYYADSVKGRFTISRDNAKNTVSLQMNSLKPEDTAVYYCAAVRISRTPRGLYEYWGQGTQVTVSS	high polyreactivity
QVQLVESGGGLDQAGGSLRLSCAASGSTFPSYAMGWYRQAPGKERELVAAINSGGGTNYADSVKGRFTISRDNAKNTVYLQMNSLKPEDTAVYYCAKSRYDYTKTEGGYWGQGTQVTVSS	low polyreactivity
QVQLVESGGGLDQAGGSLRLSCAASGSTFRFNAMGWYRQAPGKEREFVAAIRFTGGSSYYSDSVKGRFTISRDNAKNTVYLQMNSLKPDDTAVYYCNNADEYSTVEYDYWGQGTLVTVSS	low polyreactivity
QVQLVESGGGLDQAGGSLRLSCAASGSTFYGYAMGWYRPAPGKERELVAGISSGDSTNYADSVKGRFTISRDNAKNTVYLQMNSLKPEDTAVYYCARDYSRHKGDYWGQGTQVTVSS	low polyreactivity
QVQLVESGGGLDQAGGSLRLSCAASGSTVVRYAMGWYRQAPGKEREFVATISRRGGSTYYADSVKGRFTISRDNAKNTVYLQMNSLKPEDTAVYYCAKQGEAALPYIYDHWGQGTQVTVSS	low polyreactivity
QVQLVESGGGLDQAGGSLRLSCAASGYIFGSYAMGWYRQAPGKERELVAAITISGGRTYYADSVKGRFTISRDNAKNTVYLQMNSLLPEDTAVYYCAKDGERSRNGRIHYDYWGQGTKVTVSS	low polyreactivity
QVQLVESGGGLDQAGGSLRLSCAASGYTYGYYAMGWYRQAPGKERELVATISYSGGTTYYADSVRGRFTISRDNAKNTVYLQMNSLKPEDTAVYYCNARGYKRLYGYWVQGTQVTVSS	high polyreactivity
QVQLVESGGGLDQAGGSLRLSCADSGFTSDGYAKGSYTQAPGKEREFVADINSDGSTNYADSVKARFTISRDNAKNTVYLQLNSLIPEDSAVYYCAKDQAAYYLIPWYPLHDYWGQGTQVTLSS	low polyreactivity
QVQLVESGGGLDQAGGSLRLSCASSGRIFRYNARGWYRQAPGKERELVAAITSGTGTNYADSVKGRFTISRDNAKNTVYLQMNRLTPEETAVYYCAVDYGYWRDSMGLGVFDYWGQGTQVTVSS	low polyreactivity
QVQLVESGGGLDQAGGSLRLSCDASGFIFVRYAMGWSRQAPGKERELVAGINSGGSTSYADSVKGRFTISRDNAKNTVYLQMNSLKPEDSAVYYCNADVYVGYEYEYWGQGTQVTVSS	low polyreactivity
QVQLVESGGGLDQAGGSLRLSCPASGRIFPINAMGRYRQAPGKERELVAAISYSRGSTYYADSVKGRFTISRDNAKNTVYLQMNSLKPEDTAVYYCNARYPYSYYHRYYYWGQGTQVSVSS	high polyreactivity
QVQLVESGGGLDQAGGSLRLSCVASGSIFRGNAMGWYRQAPGKERELVASISKGGGSTYYADSVKGRFIISRDNAKNTVYLQMNSLKPEDTAVYYCNAQFYNSGWSFKYYYWGQGTQVTVSS	low polyreactivity
QVQLVESGGGLDQAGGSLRLSSAASGFTFRRNAMGWYRQAPGTERELVASITQRGGSTYYADSVKGRFTISRDNAKNTVYLQMNSLKPEATAVYYCAAGPTSRRWYDYWGQGTEVTVSS	high polyreactivity
QVQLVESGGGLDQAGGSLRLSSAASGITFYGYDMGWYRQAPGKARELVAAITSDGITNYADSVKGRFTFSRDNAKNTVYLHMNSLKPEDTAVYYCAADLSFYRRYEWYYYWGQGTQVTVSS	low polyreactivity
